In patent US6174855A, “Pharmaceutical compositions comprising thrombin inhibitors and their use in the control of wound healing processes” (AstraZeneca AB, priority 1996, dated 2001):

Test system: fibrin-related adhesions between the stomach and the liver, the intestines and the omentum
Assay: Acetic acid injury to the serosal surface of the rat stomach: formation of adhesions
Type: in vivo
Conditions: minipump in abdominal cavity, outlet free and open; wound covered by chitosan membrane; up to 10 days
Experimental: The serosal surface of the stomach of an adult anaesthetised rat was exposed in an area of 7 mm diameter to 80% acetic acid over 60 seconds. After rinsing with buffered saline solution, an osmotic minipump (Alza 2001, volume about 220 μL; pumping rate about 1 μL/h; Alza Corp.; Palo Alto, Calif., USA; prefilled with a solution of the thrombin inhibitor melagatran, 2-100 μg/mL) was implanted into the peritoneal cavity, with the outlet of the pump kept open, and delivered its content into the abdominal cavity. The wounded area was covered by a chitosan membrane or, in an alternative experiment, a gel, having a diameter several millimeters larger than that of the injured area.
The serosal surface of the stomach of an adult, anaesthetised rat was exposed in an area of 7 mm diameter to 80% acetic acid over 60 seconds. After rinsing with buffered saline, the wounded area was covered by a chitosan membrane or, in an alternative experiment, a gel, having a diameter several millimeters larger than the injured area. An osmotic minipump (Alza 2001, volume about 220 μL; pumping rate about 1 μL/h; Alza Corp.; Palo Alto, Calif., USA; prefilled with a solution of the thrombin inhibitor melagatran, 2-100 μg/mL) was implanted subcutaneously, with the outlet of the pump kept open, delivering its content into the adjacent tissue. […]

B1: Actilyse: recombinant human tissue-plasminogen-activator; Boehringer Ingelheim (protein, UniProt P00750 36-562, looked up)
Tissue-type plasminogen …: SYQVICRDEKTQMIYQQHQSWLRPVLRSNRVEYCWCNSGRAQCHSVPVKSCSEPRCFNGGTCQQALYFSDFVCQCPEGFAGKCCEIDTRATCYEDQGISYRGTWSTAESGAECTNWNSSALAQKPYSGRRPDAIRLGLGNHNYCRNPDRDSKPWCYVFKAGKYSSEFCSTPACSEGNSDCYFGNGSAYRGTHSLTESGASCLPWNSMILIGKVYTAQNPSAQALGLGKHNYCRNPDGDAKPWCHVLKNRRLTWEYCDVPSCSTCGLRQYSQPQFRIKGGLFADIASHPWQAAIFAKHRRSPGERFLCGGILISSCWILSAAHCFQERFPPHHLTVILGRTYRVVPGEEEQKFEVEKYIVHKEFDDDTYDNDIALLQLKSDSSRCAQESSVVRTVCLPPADLQLPDWTECELSGYGKHEALSPFYSERLKEAHVRLYPSSRCTSQHLLNRTVTDNMLCAGDTRSGGPQANLHDACQGDSGGPLVCLNDGRMTLVGIISWGLGCGQKDVPGVYTKVTNYLDWIRDNMRP
fibrin network or strands of newly formed granulation tissue connecting the stomach with the liver, the intestines and the omentum: No fibrin network, nor any strands of newly formed granulation tissue, could be detected
